The labels stand for the following.
B1: SEQ ID NO 128 (peptide)
peptide: Ac-KWVTH[Cit]LAGLLS[Cit]SGGVVRKNFVPTDVGPKAF-NH2
SMILES: CC(=O)N[C@@H](CCCCN)C(=O)N[C@@H](Cc1c[nH]c2ccccc12)C(=O)N[C@H](C(=O)N[C@H](C(=O)N[C@@H](Cc1c[nH]cn1)C(=O)N[C@@H](CCCNC(N)=O)C(=O)N[C@@H](CC(C)C)C(=O)N[C@@H](C)C(=O)NCC(=O)N[C@@H](CC(C)C)C(=O)N[C@@H](CC(C)C)C(=O)N[C@@H](CO)C(=O)N[C@@H](CCCNC(N)=O)C(=O)N[C@@H](CO)C(=O)NCC(=O)NCC(=O)N[C@H](C(=O)N[C@H](C(=O)N[C@@H](CCCNC(=N)N)C(=O)N[C@@H](CCCCN)C(=O)N[C@@H](CC(N)=O)C(=O)N[C@@H](Cc1ccccc1)C(=O)N[C@H](C(=O)N1CCC[C@H]1C(=O)N[C@H](C(=O)N[C@@H](CC(=O)O)C(=O)N[C@H](C(=O)NCC(=O)N1CCC[C@H]1C(=O)N[C@@H](CCCCN)C(=O)N[C@@H](C)C(=O)N[C@@H](Cc1ccccc1)C(N)=O)C(C)C)[C@@H](C)O)C(C)C)C(C)C)C(C)C)[C@@H](C)O)C(C)C
B2: SEQ ID NO 655 (peptide)
peptide: Ac-WVTH[Cit]LAGLLS[Cit]SGGVV[hArg]KNFVPTDVGPF-NH2
SMILES: CC(=O)N[C@@H](Cc1c[nH]c2ccccc12)C(=O)N[C@H](C(=O)N[C@H](C(=O)N[C@@H](Cc1c[nH]cn1)C(=O)N[C@@H](CCCNC(N)=O)C(=O)N[C@@H](CC(C)C)C(=O)N[C@@H](C)C(=O)NCC(=O)N[C@@H](CC(C)C)C(=O)N[C@@H](CC(C)C)C(=O)N[C@@H](CO)C(=O)N[C@@H](CCCNC(N)=O)C(=O)N[C@@H](CO)C(=O)NCC(=O)NCC(=O)N[C@H](C(=O)N[C@H](C(=O)N[C@@H](CCCCNC(=N)N)C(=O)N[C@@H](CCCCN)C(=O)N[C@@H](CC(N)=O)C(=O)N[C@@H](Cc1ccccc1)C(=O)N[C@H](C(=O)N1CCC[C@H]1C(=O)N[C@H](C(=O)N[C@@H](CC(=O)O)C(=O)N[C@H](C(=O)NCC(=O)N1CCC[C@H]1C(=O)N[C@@H](Cc1ccccc1)C(N)=O)C(C)C)[C@@H](C)O)C(C)C)C(C)C)C(C)C)[C@@H](C)O)C(C)C
B3: SEQ ID NO 657 (peptide)
peptide: Ac-[Cit]LAGLLS[Cit]SGGVV[hArg]KNFVPTDVGPFAF-NH2
SMILES: CC(=O)N[C@@H](CCCNC(N)=O)C(=O)N[C@@H](CC(C)C)C(=O)N[C@@H](C)C(=O)NCC(=O)N[C@@H](CC(C)C)C(=O)N[C@@H](CC(C)C)C(=O)N[C@@H](CO)C(=O)N[C@@H](CCCNC(N)=O)C(=O)N[C@@H](CO)C(=O)NCC(=O)NCC(=O)N[C@H](C(=O)N[C@H](C(=O)N[C@@H](CCCCNC(=N)N)C(=O)N[C@@H](CCCCN)C(=O)N[C@@H](CC(N)=O)C(=O)N[C@@H](Cc1ccccc1)C(=O)N[C@H](C(=O)N1CCC[C@H]1C(=O)N[C@H](C(=O)N[C@@H](CC(=O)O)C(=O)N[C@H](C(=O)NCC(=O)N1CCC[C@H]1C(=O)N[C@@H](Cc1ccccc1)C(=O)N[C@@H](C)C(=O)N[C@@H](Cc1ccccc1)C(N)=O)C(C)C)[C@@H](C)O)C(C)C)C(C)C)C(C)C
B4: SEQ ID NO 659 (peptide)
peptide: Ac-WVTH[Cit]LAGLLS[Cit]SGGVV[hArg]KNFVPTDVG[Oic]FA-NH2
SMILES: CC(=O)N[C@@H](Cc1c[nH]c2ccccc12)C(=O)N[C@H](C(=O)N[C@H](C(=O)N[C@@H](Cc1c[nH]cn1)C(=O)N[C@@H](CCCNC(N)=O)C(=O)N[C@@H](CC(C)C)C(=O)N[C@@H](C)C(=O)NCC(=O)N[C@@H](CC(C)C)C(=O)N[C@@H](CC(C)C)C(=O)N[C@@H](CO)C(=O)N[C@@H](CCCNC(N)=O)C(=O)N[C@@H](CO)C(=O)NCC(=O)NCC(=O)N[C@H](C(=O)N[C@H](C(=O)N[C@@H](CCCCNC(=N)N)C(=O)N[C@@H](CCCCN)C(=O)N[C@@H](CC(N)=O)C(=O)N[C@@H](Cc1ccccc1)C(=O)N[C@H](C(=O)N1CCC[C@H]1C(=O)N[C@H](C(=O)N[C@@H](CC(=O)O)C(=O)N[C@H](C(=O)NCC(=O)N1[C@H](C(=O)N[C@@H](Cc2ccccc2)C(=O)N[C@@H](C)C(N)=O)C[C@@H]2CCCC[C@@H]21)C(C)C)[C@@H](C)O)C(C)C)C(C)C)C(C)C)[C@@H](C)O)C(C)C
B5: SEQ ID NO 708 (peptide)
peptide: AC(Acm)DTATSVTHRLAGLLSRSGGVVKNNFVPTNVGSKAF-NH2
modifications: N-terminus assumed
SMILES: CC(=O)NCSC[C@H](NC(=O)[C@H](C)N)C(=O)N[C@@H](CC(=O)O)C(=O)N[C@H](C(=O)N[C@@H](C)C(=O)N[C@H](C(=O)N[C@@H](CO)C(=O)N[C@H](C(=O)N[C@H](C(=O)N[C@@H](Cc1c[nH]cn1)C(=O)N[C@@H](CCCNC(=N)N)C(=O)N[C@@H](CC(C)C)C(=O)N[C@@H](C)C(=O)NCC(=O)N[C@@H](CC(C)C)C(=O)N[C@@H](CC(C)C)C(=O)N[C@@H](CO)C(=O)N[C@@H](CCCNC(=N)N)C(=O)N[C@@H](CO)C(=O)NCC(=O)NCC(=O)N[C@H](C(=O)N[C@H](C(=O)N[C@@H](CCCCN)C(=O)N[C@@H](CC(N)=O)C(=O)N[C@@H](CC(N)=O)C(=O)N[C@@H](Cc1ccccc1)C(=O)N[C@H](C(=O)N1CCC[C@H]1C(=O)N[C@H](C(=O)N[C@@H](CC(N)=O)C(=O)N[C@H](C(=O)NCC(=O)N[C@@H](CO)C(=O)N[C@@H](CCCCN)C(=O)N[C@@H](C)C(=O)N[C@@H](Cc1ccccc1)C(N)=O)C(C)C)[C@@H](C)O)C(C)C)C(C)C)C(C)C)[C@@H](C)O)C(C)C)[C@@H](C)O)[C@@H](C)O
B6: SEQ ID NO 703 (peptide)
peptide: [Phg]VTHRLAGLLSRSGGVVKNNFVPTDVGPFAF-NH2
modifications: N-terminus assumed
SMILES: CC(C)C[C@H](NC(=O)CNC(=O)[C@H](C)NC(=O)[C@H](CC(C)C)NC(=O)[C@H](CCCNC(=N)N)NC(=O)[C@H](Cc1c[nH]cn1)NC(=O)[C@@H](NC(=O)[C@@H](NC(=O)[C@@H](N)c1ccccc1)C(C)C)[C@@H](C)O)C(=O)N[C@@H](CC(C)C)C(=O)N[C@@H](CO)C(=O)N[C@@H](CCCNC(=N)N)C(=O)N[C@@H](CO)C(=O)NCC(=O)NCC(=O)N[C@H](C(=O)N[C@H](C(=O)N[C@@H](CCCCN)C(=O)N[C@@H](CC(N)=O)C(=O)N[C@@H](CC(N)=O)C(=O)N[C@@H](Cc1ccccc1)C(=O)N[C@H](C(=O)N1CCC[C@H]1C(=O)N[C@H](C(=O)N[C@@H](CC(=O)O)C(=O)N[C@H](C(=O)NCC(=O)N1CCC[C@H]1C(=O)N[C@@H](Cc1ccccc1)C(=O)N[C@@H](C)C(=O)N[C@@H](Cc1ccccc1)C(N)=O)C(C)C)[C@@H](C)O)C(C)C)C(C)C)C(C)C

We go through 22 molecules from patent US20080020978A1 (Amgen, published 2008).

Square brackets hold non-standard residues; d marks the D form. Ends that are not written are not given here. * marks the point of attachment. Oic = O=C(O)[C@@H]1C[C@@H]2CCCC[C@@H]2N1; hArg = N=C(N)NCCCC[C@H](N)C(=O)O; Tic = O=C(O)[C@@H]1Cc2ccccc2CN1; Cha = N[C@@H](CC1CCCCC1)C(=O)O; Cit = NC(=O)NCCC[C@H](N)C(=O)O; Phg = N[C@H](C(=O)O)c1ccccc1; Acm = CC(=O)NC*

The target of the first test is T1, CGRP1 receptor (CRLR/RAMP1 complex) of human neuroblastoma SK-N-MC cells (human, UniProt Q16602 23-461; O60894 27-148). Nature of the test: cell-based or functional assay.
T1 sequence (Q16602 23-461, chain 1 of 2): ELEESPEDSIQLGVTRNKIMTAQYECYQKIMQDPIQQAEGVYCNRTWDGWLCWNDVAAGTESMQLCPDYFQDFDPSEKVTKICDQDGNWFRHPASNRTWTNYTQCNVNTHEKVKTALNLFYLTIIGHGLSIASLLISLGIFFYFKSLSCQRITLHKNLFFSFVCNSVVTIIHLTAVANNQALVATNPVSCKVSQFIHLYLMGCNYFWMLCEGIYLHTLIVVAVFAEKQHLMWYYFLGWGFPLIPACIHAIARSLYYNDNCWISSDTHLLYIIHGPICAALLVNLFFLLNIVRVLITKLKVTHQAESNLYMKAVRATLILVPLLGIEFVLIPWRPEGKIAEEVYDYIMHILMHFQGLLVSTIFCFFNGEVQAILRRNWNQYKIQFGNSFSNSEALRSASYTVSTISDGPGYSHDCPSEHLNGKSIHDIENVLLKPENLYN
T1 sequence (O60894 27-148, chain 2 of 2): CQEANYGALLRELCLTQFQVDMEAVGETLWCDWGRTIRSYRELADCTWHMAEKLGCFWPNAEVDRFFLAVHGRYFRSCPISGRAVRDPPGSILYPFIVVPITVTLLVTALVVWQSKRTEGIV
As for Ac-WVTH[Cit]LAGLLS[Cit]SGGVV[hArg]KNFVPTDVGPFA-NH2 (not fully specified) [SEQ ID NO 654], the “IC50” value was > 1000 nM.
The same measure, in the same setting: as for Ac-WVTH[Cit]LAGLLS[Cit]SGGVVRKNFVPTDVG[Tic]FAF-NH2 [SEQ ID NO 141], the figure is 4.32 nM; as for B1, 13 nM; as for B2, > 1000 nM.
As to B3, inhibition was half-maximal at 13 nM (IC50). That is a double-digit nanomolar value.
On the same count and under the same terms, as for WVTHXLAGLLSXSGGVVXKNXVPTDVGXFAF (Ac-WVTH[Cit]LAGLLS[Cit]SGGVV[hArg]KN[2-Nal]VPTDVG[Oic]FAF-NH2) [SEQ ID NO 137], the figure is 2.66 nM; as for WVTHXLAGLLSXSGGVVXKNFVPTDVGPXAF (Ac-WVTH[Cit]LAGLLS[Cit]SGGVV[hArg]KNFVPTDVGP[1-Nal]AF-NH2) [SEQ ID NO 144], 2.24 nM; as for WVTHXLAGLLSXSGGVVXKNXVXTDVGXFAX (Ac-WVTH[Cit]LAGLLS[Cit]SGGVV[hArg]KN[2-Nal]V[Oic]TDVG[Oic]FA[2-Nal]-NH2) [SEQ ID NO 139], 3.57 nM.
For the molecule WVTHXLAGLLSXSGGVVXKNXVPTDVGXFAX (Ac-WVTH[Cit]LAGLLS[Cit]SGGVV[hArg]KN[2-Nal]VPTDVG[Oic]FA[2-Nal]-NH2) [SEQ ID NO 138], the concentration for half-maximal inhibition (IC50) turned out to be 3.45 nM. This IC50 and that of the molecule before are within 1.5-fold of each other.
For WVTHXLAGLLSXSGGVVXKNFVPTDVGPFAF (Ac-WVTH[Cit]LAGLLS[Cit]SGGVV[hArg]KNFVPTDVGPFAF-NH2) [SEQ ID NO 653], the “IC50” value turned out to be 3.22 nM.
On the same count and under the same terms, as for Ac-WVTH[Cit]LAGLLS[Cit]SGGVVRKNFVPTDVG[Tic]FAF-NH2 [SEQ ID NO 140], the figure is 3.02 nM; as for WVTHXLAGLLSXSGGVVRKNFVPTDVGPXAF (Ac-WVTH[Cit]LAGLLS[Cit]SGGVVRKNFVPTDVGP[Tic]AF-NH2) [SEQ ID NO 146], 10.1 nM.
Same read-out and setting: in the case of B4 it was > 1000 nM.

The next test deals with T1, CGRP1 receptor (CRLR/RAMP1 complex) of …. As to the kind of experiment: 125I-hαCGRP competition, SK-N-MC membranes. The protocol:
CGRP₁ binding experiments. […] The plates were incubated at room temperature for 2 hour with shaking at 60 rpm, then the contents of each well were filtered over 0.5% polyethyleneimine (PEI)-treated (at least one hour) GF/C 96-well filter plates. The GF/C filter plates were washed 6 times with ice-cold 50 mM Tris, pH 7.5 and dried in an oven at 55 C for 1 hour. The bottoms of the GF/C plates were then sealed, and 40 μl Microscint™ 20 was added to each well, then the tops of the GF/C plates were sealed with TopSeal™-A, a press-on adhesive sealing film, and the GF/C plates were counted with TopCount NXT (Packard). The data were analyzed by using ActivityBase (IDBS) or Prizm (GraphPad) software.
CGGGGGGGFVPTDVGPFAF-NH2 [SEQ ID NO 721] gave a Ki of 7.34 nM.
Molecule ASDTATCVTHRLAGLLSRSGGVVKNNFVPTNVGSKAF (ASDTATC(Acm)VTHRLAGLLSRSGGVVKNNFVPTNVGSKAF-NH2) [SEQ ID NO 707] gave an inhibition constant Ki of 20.8 nM.
Same read-out and setting: in the case of B5 it was 24 nM.
ASDTATSVTHRLAGLLSRSGGVVKNNFVPTNVGSKAF-NH2 [SEQ ID NO 709] displayed an inhibition constant (Ki) of 12.1 nM.
WVTHXLAGLLSXSGGVVRKNFVPTDVGPFAF (Ac-WVTH[Cit]LAGLLS[Cit]SGGVVRK(20 KPEGald)NFVPTDVGPFAF-NH2) [SEQ ID NO 158] displayed an inhibition constant (Ki) of 2.61 nM. This Ki lies about 4.6-fold lower than the previous one.
Molecule WVTHXLAGLLSXSGGVVXKNFVPTDVGPFAF (Ac-WVTH[Cit]LAGLLS[Cit]SGGVV[hArg]K(20 KPEGald)NFVPTDVGPFAF-NH2) [SEQ ID NO 171] registered an inhibition constant (Ki) of 1.27 nM.
WVTHXLAGLLSXSGGVVXKNFVPTDVGPFAF (Ac-WVTH[Cit]LAGLLS[Cit]SGGVV[hArg]K(20 K PEGald)NFVPTDVGPFAF-NH2) [SEQ ID NO 153]: affinity was put at a Ki of 1.78 nM.
Same read-out and setting: in the case of B6 it was 0.19 nM; in that of [Cha]VTHRLAGLLSRSGGVVKNNFVPTDVGPFAF-NH2 [SEQ ID NO 704], 0.2 nM.
